Source: patent US20240269230A1
Ends that are not written are not given here.

Assays:
[1] = molecular target: T1, kappa opioid receptor (the kOR), mouse, with C-terminal GFP (the kOR-EGFP) (mouse), P33534; assay: cell-based or functional assay
T1 chain: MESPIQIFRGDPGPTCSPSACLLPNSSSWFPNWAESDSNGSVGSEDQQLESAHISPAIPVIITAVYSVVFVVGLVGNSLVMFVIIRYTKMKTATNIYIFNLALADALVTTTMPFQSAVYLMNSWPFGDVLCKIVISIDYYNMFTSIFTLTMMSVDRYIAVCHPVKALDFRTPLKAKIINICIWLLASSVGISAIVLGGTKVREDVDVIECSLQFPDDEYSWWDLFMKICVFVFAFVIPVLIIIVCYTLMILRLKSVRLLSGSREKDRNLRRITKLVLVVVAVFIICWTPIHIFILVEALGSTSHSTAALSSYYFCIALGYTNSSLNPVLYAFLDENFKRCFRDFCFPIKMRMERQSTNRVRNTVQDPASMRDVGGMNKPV

[2] = molecular target: T1, kappa opioid receptor (the kOR), mouse, …

GLPVCGETCVGGTCNTPGCKCSWPVCTRN (not fully specified (bridges); ends and bridges not checked) [[T20K]-kalata B1] was tested, and the cAMP assay EC50 (HEK293 cells stably expressing the kOR) [1] was 17 µM, the leftward shift in the cAMP potency of the orthosteric ligand U50,488 [1] was 9 fold and the Ki [2] was 2.7 µM.
